From patent publication US20260053882A1 (TRUSTEES OF PRINCETON UNIVERSITY, published 2026)

B2: SpyTag003-AF594 (His6-SpyTag003-SUMO-Cys Alexa Fluor 594 conjugate) (other)
chain: MGSSHHHHHHSSGLVPRGSRGVPHIVMVDAYKRYKGSGESGMSDSEVNQEAKPEVKPEVKPETHINLKVSDGSSEIFFKIKKTTPLRRLMEAFAKRQGKEMDSLRFLYDGIRIQADQTPEDLDMEDNDIIEAHREQIGC
modifications: Alexa Fluor 594 C5 maleimide on the C-terminal Cys
notes: the SUMO is internal (His6-SpyTag003-SUMO-Cys) and is not cut off; also called fluorescently labeled probe
B7: reconstituted SpyCatcher003 spliced from SpyN-αHER2 and SpyC-αEGFR (FLAG-αHER2-SpyCatcher003-αEGFR-Myc, NrdJ-1 splice product) (other)
chain: DYKDDDDKDLGKKLLEAARAGQDDEVRILMANGADVNAKDEYGLTPLYLATAHGHLEIVEVLLKNGADVNAVDAIGFTPLHLAAFIGHLEIAEVLLKHGADVNAQDKFGKTAFDISIGNGNEDLAEILQKLNGSTSGSVTTLSGLSGEQGPSGDMTTEEDSATHIKFSKRDEDGRELAGATMELRDSSGKTISTWISDGHVKDFYLYPGKYSFVETAAPDGYEVATPIEFTVNEDGQVTVDGEATEGDAHTGSTSGSDLGKKLLEAARAGQDDEVRILMANGADVNADDTWGWTPLHLAAYQGHLEIVEVLLKNGADVNAYDYIGWTPLHLAADGHLEIVEVLLKNGADVNASDYIGDTPLHLAAHNGHLEIVEVLLKHGADVNAQDKFGKTAFDISIDNGNEDLAEILQKLNEQKLISEEDL
notes: On cells it is held by its two DARPins on HER2 and EGFR; also called reconstituted SpyCather003; spliced SpyCatcher003

How the values were obtained:
[1] = molecular target: B7; assay: western blot of K562 HER2+/EGFR+ cells treated with SMART-SpyCatcher and 300 nM SpyTag003-APEX2
[2] = molecular target: B7; assay: confocal microscopy, K562 HER2+/EGFR+ cells treated with SpyN-αHER2 and SpyC-αEGFR (eNrdJ-1^cage), 100 nM probe
[3] = molecular target: B7; assay: confocal microscopy, K562 HER2+/EGFR+ cells treated with SMART-SpyCatcher, 100 nM SpyTag003-DNP
[4] = molecular target: B7; assay: western blot of K562 HER2+/EGFR+ cells treated with SMART-SpyCatcher
[5] = molecular target: B7; assay: labeled mutant probe on K562 HER2+/EGFR+ cells treated with SMART-SpyCatcher, washed, AF594 signal
[6] = molecular target: T1, Epithelial Cell Adhesion Molecule (EpCAM), endogenous on human cell lines (human, UniProt P16422 24-314); assay: flow cytometry, 100 nM DARPin-AF594 on human cancer cell lines
T1 construct: whole, on cells
T1 sequence (looked up): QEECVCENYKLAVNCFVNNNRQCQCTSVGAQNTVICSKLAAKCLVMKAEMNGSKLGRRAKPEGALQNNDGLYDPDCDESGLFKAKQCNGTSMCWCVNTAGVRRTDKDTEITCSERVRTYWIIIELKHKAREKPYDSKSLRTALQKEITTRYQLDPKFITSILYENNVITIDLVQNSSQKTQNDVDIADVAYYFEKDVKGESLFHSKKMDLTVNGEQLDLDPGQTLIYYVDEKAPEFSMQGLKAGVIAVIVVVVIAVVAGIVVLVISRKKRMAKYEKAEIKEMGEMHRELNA

[7] = molecular target: B2; assay: in vitro splicing of the C76V FKBP/FRB precursors with rapamycin, reaction with 2 µM SpyTag003-AF594, western blot
[8] = molecular target: B2; assay: flow cytometry, K562 HER2+/EGFR+ cells, SpyN-αHER2(K31E) + SpyC-αEGFR
[9] = molecular target: T2, HER2, endogenous on human cell lines (human, UniProt P04626 23-1255); assay: flow cytometry, 100 nM DARPin-AF594 on human cancer cell lines
T2 construct: whole, on cells

[10] = molecular target: B2; assay: confocal microscopy, K562 HER2+/EGFR+ cells; splicing-dead SpyN-αHER2 together with SpyC-αEGFR

B1: SpyTag003-APEX2 (His6-SpyTag003-HA-APEX2) (other)
chain: MGSSHHHHHHSSGLVPRGSRGVPHIVMVDAYKRYKGSGESGYPYDVPDYASSGGKSYPTVSADYQDAVEKAKKKLRGFIAEKRCAPLMLRLAFHSAGTFDKGTKTGGPFGTIKHPAELAHSANNGLDIAVRLLEPLKAEFPILSYADFYQLAGVVAVEVTGGPKVPFHPGREDKPEPPPEGRLPDPTKGSDHLRDVFGKAMGLTDQDIVALSGGHTIGAAHKERSGFEGPWTSNPLIFDNSYFTELLSGEKEGLLQLPSDKALLSDPVFRPLVDKYAADEDAFFADYAEAHQKLSELGFADA
notes: Not SUMO-tagged
B1: binds [1].

B2: binds [2].

B3: SpyTag003-DNP (His6-SpyTag003-SUMO-Cys dinitrophenol conjugate) (other)
chain: MGSSHHHHHHSSGLVPRGSRGVPHIVMVDAYKRYKGSGESGMSDSEVNQEAKPEVKPEVKPETHINLKVSDGSSEIFFKIKKTTPLRRLMEAFAKRQGKEMDSLRFLYDGIRIQADQTPEDLDMEDNDIIEAHREQIGC
modifications: 2,4-dinitrophenyl-maleimide on the C-terminal Cys
notes: Conjugate of SpyTag003-Cys; also called SpyTag003 2,4-dinitrolphenol conjugate; dinitrophenyl probe
B3: binds [3].

B4: SpyTag003-biotin (His6-SpyTag003-SUMO-Cys biotin conjugate) (other)
chain: MGSSHHHHHHSSGLVPRGSRGVPHIVMVDAYKRYKGSGESGMSDSEVNQEAKPEVKPEVKPETHINLKVSDGSSEIFFKIKKTTPLRRLMEAFAKRQGKEMDSLRFLYDGIRIQADQTPEDLDMEDNDIIEAHREQIGC
modifications: biotin maleimide on the C-terminal Cys
notes: Conjugate of SpyTag003-Cys; also called biotinylated probe
B4: binds [4].

B5: SpyTag003^D117A-AF594 (His6-SpyTag003^D117A-SUMO-Cys Alexa Fluor 594 conjugate) (other)
chain: MGSSHHHHHHSSGLVPRGSRGVPHIVMVAAYKRYKGSGESGMSDSEVNQEAKPEVKPEVKPETHINLKVSDGSSEIFFKIKKTTPLRRLMEAFAKRQGKEMDSLRFLYDGIRIQADQTPEDLDMEDNDIIEAHREQIGC
modifications: Alexa Fluor 594 C5 maleimide on the C-terminal Cys
B5: no binding (tested: 100 nM) [5].

B6: αEpCAM-AF594 DARPin (αEpCAM-HA-Cys Alexa Fluor 594 conjugate) (designed binder)
chain: DLGKKLLEAARAGQDDEVRILVANGADVNAYFGTTPLHLAAAHGRLEIVEVLLKNGADVNAQDVWGITPLHLAAYNGHLEIVEVLLKYGADVNAHDTRGWTPLHLAAINGHLEIVEVLLKNVADVNAQDRSGKTPFDLAIDNGNEDIAEVLQKAAKLNGGYPYDVPDYAGGSC
modifications: Alexa Fluor 594 C5 maleimide on the C-terminal Cys
notes: His6-SUMO tag cut off with Ulp1; range derived by counting; also called targeting DARPin labeled with AF594
B6: binds [6].

B7: binds [7].

B8: reconstituted SpyCatcher003 with K31E, spliced from SpyN-αHER2(K31E) and SpyC-αEGFR (other)
chain: DYKDDDDKDLGKKLLEAARAGQDDEVRILMANGADVNAKDEYGLTPLYLATAHGHLEIVEVLLKNGADVNAVDAIGFTPLHLAAFIGHLEIAEVLLKHGADVNAQDKFGKTAFDISIGNGNEDLAEILQKLNGSTSGSVTTLSGLSGEQGPSGDMTTEEDSATHIKFSERDEDGRELAGATMELRDSSGKTISTWISDGHVKDFYLYPGKYSFVETAAPDGYEVATPIEFTVNEDGQVTVDGEATEGDAHTGSTSGSDLGKKLLEAARAGQDDEVRILMANGADVNADDTWGWTPLHLAAYQGHLEIVEVLLKNGADVNAYDYIGWTPLHLAADGHLEIVEVLLKNGADVNASDYIGDTPLHLAAHNGHLEIVEVLLKHGADVNAQDKFGKTAFDISIDNGNEDLAEILQKLNEQKLISEEDL
notes: K31 is counted on SpyCatcher003; ranges derived as for m26; also called defective POI; defective output
B8: no binding (tested: 100 nM) [8].

B9: αHER2-AF594 DARPin (αHER2-HA-Cys Alexa Fluor 594 conjugate) (designed binder)
chain: DLGKKLLEAARAGQDDEVRILMANGADVNAKDEYGLTPLYLATAHGHLEIVEVLLKNGADVNAVDAIGFTPLHLAAFIGHLEIAEVLLKHGADVNAQDKFGKTAFDISIGNGNEDLAEILQKLNGGYPYDVPDYAGGSC
modifications: Alexa Fluor 594 C5 maleimide on the C-terminal Cys
notes: as for B6
B9: binds [9].

B10: αHER2-SpyN-eNrdJ-1N^cage Cys1-alkylated (other)
chain: DYKDDDDKDLGKKLLEAARAGQDDEVRILMANGADVNAKDEYGLTPLYLATAHGHLEIVEVLLKNGADVNAVDAIGFTPLHLAAFIGHLEIAEVLLKHGADVNAQDKFGKTAFDISIGNGNEDLAEILQKLNGSTSGSVTTLSGLSGEQGPSGDMTTEEDSATHIKFSKRDEDGRELAGATMELRDSSGKTISTWISDGHVKDFYLYPGKYCLVGSSEIITRNYGKTTIKEVVEIFDNDKNIQVLAFNTHTDNIEWAPIKAAQLTRPNAELVELEIDTLHGVKTIRVTPDHPVYTKNRGYVRADELTDDDELVVAIENLYGDEVNGYFQGMEAETYIGKLKSRAIVSNEDTYDIQTSTHNFFAND
modifications: Cys1 of eNrdJ-1N^cage alkylated with iodoacetamide (residue 331 of the printed SEQ ID NO 26)
notes: His6-SUMO tag cut off with Ulp1; range derived by counting; also called SpyN-αHER2 with Cys1-alkylated NrdJ-1N^cage
B10: no binding (tested: 100 nM) [10].
